Laboratory results taken from US20260250352A1.
Like-named read-outs stand apart in the source and are kept apart here.

What was measured:
Assay in all cases: cell-based or functional assay
[1] = biological target: recombinant human APRIL (human) (UniProt O75888)
[2] = biological target: single chain BAFF-APRIL-APRIL heterotrimer (BAA) (human) (UniProt Q9Y275)
[3] = biological target: APRIL + BAFF in combination (human)
[4] = biological target: APRIL + BAFF in combination (human); remark: listed apart in the source

Chain of single chain BAFF-APRIL-APRIL heterotrimer (BAA) (human) (Q9Y275 other isoform, or with tags, fused parts or gaps limits assumed): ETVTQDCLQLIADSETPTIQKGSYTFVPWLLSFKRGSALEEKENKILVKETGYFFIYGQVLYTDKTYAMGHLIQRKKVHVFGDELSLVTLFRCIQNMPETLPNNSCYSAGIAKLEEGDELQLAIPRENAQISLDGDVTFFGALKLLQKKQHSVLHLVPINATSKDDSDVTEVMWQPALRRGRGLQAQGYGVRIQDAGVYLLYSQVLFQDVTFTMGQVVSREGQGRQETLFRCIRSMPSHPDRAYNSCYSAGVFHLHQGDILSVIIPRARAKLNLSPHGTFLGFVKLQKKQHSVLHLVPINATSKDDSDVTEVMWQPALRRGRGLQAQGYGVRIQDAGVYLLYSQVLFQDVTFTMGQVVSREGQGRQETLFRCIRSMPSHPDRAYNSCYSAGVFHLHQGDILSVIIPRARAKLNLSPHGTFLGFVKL

B1: Anti-APRIL mAb based on the published VIS649 (sibeprenlimab) sequence (antibody, INN chains, looked up, V domains shown)
VH: QVQLVQSGAEVKKPGASVKVSCKASGYTFTDYTIHWVRQATGQGLEWMGWIYPLRGSINYAQKFQGRVTMTADKSISTVYMELSSLRSEDTAVYFCARHGAYYSNAFDYWGQGTLVTVSS
VL: EIVMTQSPATLSVSPGERATLSCRASESVDNDGIRFLHWYQQKPGQAPRLLIYRASTRATGIPARFSGSGSRTEFTLTISSLQSEDFAVYYCQQSNKDPYTFGGGTKVEIK
In the case of B1, the IC50, TACI/Jurkat/NF-kB reporter [1] is reported as 5.1 nM and the IC50, TACI/Jurkat/NF-kB reporter [2] is reported as 0.144 nM.

B2: Anti-APRIL mAb based on the published BION-1301 sequence (antibody, INN chains, looked up, V domains shown)
VH: QVQLVQSGAEVKKPGASVKVSCKASGYTFTDYTIHWVRQATGQGLEWMGWIYPLRGSINYAQKFQGRVTMTADKSISTVYMELSSLRSEDTAVYFCARHGAYYSNAFDYWGQGTLVTVSS
VL: EIVMTQSPATLSVSPGERATLSCRASESVDNDGIRFLHWYQQKPGQAPRLLIYRASTRATGIPARFSGSGSRTEFTLTISSLQSEDFAVYYCQQSNKDPYTFGGGTKVEIK
Binder B2 has an IC50, Jurkat/NF-kB/TACI reporter [3] greater than 100 nM, an IC50, TACI/Jurkat/NF-kB reporter [3] greater than 200 nM and an IC50, Jurkat/NF-kB/TACI reporter [1] of 4.9 nM. The IC50, TACI/Jurkat/NF-kB reporter [1] was 21.9 nM.

B3: Telitacicept, O14836 13-118 (Fc fusion, not shown: a dimerising Fc or GST)
chain: SRVDQEERFPQGLWTGVAMRSCPEEQYWDPLLGTCMSCKTICNHQSQRTCAAFCRSLSCRKEQGKFYDHLLRDCISCASICGQHPKQCAYFCENKLRSPVNLPPEL
modifications: here or on the partner: The drug is a disulfide-linked Fc-fusion homodimer. Only one TACI ECD arm is given, and the Fc is left out.
In the case of B3, the IC50, Jurkat/NF-kB/TACI reporter [4] is reported as 16.8 nM and the IC50, TACI/Jurkat/NF-kB reporter [4] is reported as greater than 200 nM.

B4: 26 TACI CRD2-Fc (Fc fusion)
chain: SLSCRKEQGEYYDHLLRDCISCASICGQHPKQCADFCENKLRSGSGGGGSEPKSSDKTHTCPPCPAPEAEGAPSVFLFPPKPKDTLMISRTPEVTCVVVDVSHEDPEVKFNWYVDGVEVHNAKTKPREEQYNSTYRVVSVLTVLHQDWLNGKEYKCKVSNKALPAPIEKTISKAKGQPREPQVYTLPPSRDELTKNQVSLTCLVKGFYPSDIAVEWESNGQPENNYKTTPPVLDSDGSFFLYSKLTVDKSRWQQGNVFSCSVMHEALHNHYTQKSLSLSPG
B4 gave an IC50, Jurkat/NF-kB/TACI reporter [4] of 1.39 nM, an IC50, TACI/Jurkat/NF-kB reporter [4] of 3.1 nM and a fold better IC50 than anti-APRIL mAb plus belimumab [4] of 3.5 fold. For the same binder, the fold lower IC50 than telitacicept [4] was greater than 50 fold.

B5: Belimumab (antibody, INN chains, looked up, V domains shown)
VH: QVQLQQSGAEVKKPGSSVRVSCKASGGTFNNNAINWVRQAPGQGLEWMGGIIPMFGTAKYSQNFQGRVAITADESTGTASMELSSLRSEDTAVYYCARSRDLLLFPHHALSPWGRGTMVTVSS
VL: SSELTQDPAVSVALGQTVRVTCQGDSLRSYYASWYQQKPGQAPVLVIYGKNNRPSGIPDRFSGSSSGNTASLTITGAQAEDEADYYCSSRDSSGNHWVFGGGTELTVLG
Work on B5 yielded an IC50, Jurkat/NF-kB/TACI reporter [3] greater than 100 nM, an IC50, Jurkat/NF-kB/TACI reporter [1] of 215000 nM and an IC50 relative to TACI 30-110-Fc [1] of 55.8.
